Numbered stars: 1 amine (or outer) side, 2 acyl side, 3 side chain; on linkers, the order of the positions; unused ones are H or OH. Square brackets hold non-standard residues; d marks the D form. Ends that are not written are not given here. * marks the point of attachment. Tap(Ae) = (2S,4R)-4-(2-aminoethylamino)pyrrolidine-2-carboxylic acid, O=C([C@@H]1C[C@@H](NCCN[*:3])CN1[*:1])[*:2]; Paa = piperazin-1-yl-acetic acid, O=C(CN1CCN([*:1])CC1)[*:2]; Pro(trans-4-NH2) = O=C([C@@H]1C[C@@H](N[*:3])CN1[*:1])[*:2]; Sni = (S)-nipecotic acid, O=C([C@H]1CCCN([*:1])C1)[*:2]; Hyp = O=C(O)[C@@H]1C[C@@H](O)CN1; d(β3hL) = CC(C)C[C@@H](N)CC(=O)O; hPhe = N[C@@H](CCc1ccccc1)C(=O)O; 2Thi = N[C@@H](Cc1cccs1)C(=O)O; AR‑314‑102 = not defined here; NMeL = CN[C@@H](CC(C)C)C(=O)O; AR‑314‑87 = not defined here; Chg = N[C@H](C(=O)O)C1CCCCC1; lys(Me2) = not defined here; orn(Me2) = not defined here; BB394 = not defined here; BB785 = not defined here; Nle = CCCC[C@H](N)C(=O)O; Octanoyl = CCCCCCCC(=O)*; Che = not defined here; Hexanoyl = CCCCCC(=O)*; leu = not defined here; Occ = octanoic acid

Here are results for 26 molecules from patent publication US9187525B2, “Methods of treating ophthalmic diseases using NPR-B agonists” (Shire Orphan Therapies GmbH, dated 2015).

The target of this test is T1, natriuretic peptide receptor-B (human).
T1 chain: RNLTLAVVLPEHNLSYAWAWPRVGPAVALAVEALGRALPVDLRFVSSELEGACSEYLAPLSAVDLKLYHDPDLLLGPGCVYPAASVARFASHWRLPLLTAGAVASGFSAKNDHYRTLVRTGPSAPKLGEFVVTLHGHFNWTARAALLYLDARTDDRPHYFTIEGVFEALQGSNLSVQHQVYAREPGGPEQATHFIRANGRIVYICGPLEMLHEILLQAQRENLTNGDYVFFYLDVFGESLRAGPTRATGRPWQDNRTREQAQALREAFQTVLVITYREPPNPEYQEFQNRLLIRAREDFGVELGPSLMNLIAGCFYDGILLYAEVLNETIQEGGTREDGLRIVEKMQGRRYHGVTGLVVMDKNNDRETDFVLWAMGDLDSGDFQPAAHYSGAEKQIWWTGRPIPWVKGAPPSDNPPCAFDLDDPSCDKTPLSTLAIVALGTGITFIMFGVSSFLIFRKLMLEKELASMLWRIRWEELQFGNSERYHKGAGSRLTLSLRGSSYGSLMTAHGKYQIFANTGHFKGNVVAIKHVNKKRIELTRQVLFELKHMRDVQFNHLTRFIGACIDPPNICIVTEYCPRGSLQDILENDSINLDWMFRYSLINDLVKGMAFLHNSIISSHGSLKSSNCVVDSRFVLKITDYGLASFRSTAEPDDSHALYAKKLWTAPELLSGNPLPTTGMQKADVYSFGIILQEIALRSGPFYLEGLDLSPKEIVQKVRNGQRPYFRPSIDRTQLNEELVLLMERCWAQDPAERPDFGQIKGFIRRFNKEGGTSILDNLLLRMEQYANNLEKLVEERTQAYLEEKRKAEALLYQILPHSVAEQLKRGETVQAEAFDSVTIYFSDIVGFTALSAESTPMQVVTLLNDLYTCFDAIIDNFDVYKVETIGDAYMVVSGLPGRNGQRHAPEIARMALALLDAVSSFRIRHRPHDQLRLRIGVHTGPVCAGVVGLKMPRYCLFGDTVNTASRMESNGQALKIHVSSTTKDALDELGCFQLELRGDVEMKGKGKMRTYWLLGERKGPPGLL
Description: cell-based or functional assay.

B1: JAL-1687 (peptide)
peptide: [Occ][Sni]FLL[Hyp][NMeL]D[Apc(Gly)][Che]
modifications: not fully specified (residue 4); printed as Occ-Sni-Phe-leu-Leu-Hyp-Nml-Asp-Apc(Gly)-Che; reading uncertain
B1: the “EC50 group, cGMP in GTM-3 cells” value was not above 5 µM.

B2: JAL-1685 (peptide)
peptide: [Occ][Sni]FLL[Hyp][NMeL]D[Apc(Gua)][Che]
modifications: not fully specified (residue 4); printed as Occ-Sni-Phe-leu-Leu-Hyp-Nml-Asp-Apc(Gua)-Che; reading uncertain
For B2, the “EC50 group, cGMP in GTM-3 cells” value is not above 15 µM.

B3: JAL-1763 (peptide)
peptide: Octanoyl-[Sni]F[leu]L[Hyp][NMeL][Chg]R[Che]
modifications: reading uncertain; also: printed as Occ-Sni-Phe-leu-Leu-Hyp-Nml-Chg-Arg-Che
Regarding B3, the “EC50 group, cGMP in GTM-3 cells” value is not above 15 µM.

B4: JAL-1682 (peptide)
peptide: [Occ][Sni]FLL[Pro(trans-4-NH2)][NMeL]DR[Che]
modifications: not fully specified (residue 4); printed as Occ-Sni-Phe-leu-Leu-Tap-Nml-Asp-Arg-Che; reading uncertain
Consider B4, for which the “EC50 group, cGMP in GTM-3 cells” value was not above 1 µM.

B5: JAL-1697 (peptide)
peptide: [Occ][Sni]FLL[Hyp][NMeL]D[BB785][Che]
modifications: not fully specified (residue 4); printed as Occ-Sni-Phe-leu-Leu-Hyp-Nml-Asp-(BB785)-Che; reading uncertain
Regarding B5, the “EC50 group, cGMP in GTM-3 cells” value was not above 5 µM.

B6: JAL-0731 (peptide)
peptide: Hexanoyl-[dA][dA]F[Paa]KLDRI-NH2
On to B6, for which the “EC50 group, cGMP in GTM-3 cells” value is not above 15 µM.

B7: JAL-0718 (peptide)
peptide: Hexanoyl-[dA][dA]FGLKLDR[Chg]-NH2
In the case of B7, the “EC50 group, cGMP in GTM-3 cells” value is not above 15 µM.

B8: JAL-1730 (peptide)
peptide: [Occ][Sni]FLL[Hyp][NMeL]VR[Che]
modifications: not fully specified (residue 4); printed as Occ-Sni-Phe-leu-Leu-Hyp-Nml-Val-Arg-Che; reading uncertain
As to B8, the “EC50 group, cGMP in GTM-3 cells” value was not above 1 µM.

B9: JAL-1681 (peptide)
peptide: [Occ][Sni]FLL[Tap(Ae)][NMeL]DR[Che]
modifications: not fully specified (residue 4); printed as Occ-Sni-Phe-leu-Leu-Tap(Ae)-Nml-Asp-Arg-Che; reading uncertain
In the case of B9, the “EC50 group, cGMP in GTM-3 cells” value was not above 1 µM.

B10: JAL-1694 (peptide)
peptide: [Occ][Sni]FLL[Hyp][NMeL]D[BB394][Che]
modifications: not fully specified (residue 4); printed as Occ-Sni-Phe-leu-Leu-Hyp-Nml-Asp-(BB394)-Che; reading uncertain
As for B10, the “EC50 group, cGMP in GTM-3 cells” value was not above 15 µM.

B11: JAL-1683 (peptide)
peptide: [Occ][Sni]FLL[Tap(Ae)][NMeL]VR[Che]
modifications: not fully specified (residue 4); printed as Occ-Sni-Phe-leu-Leu-Tap(Ae)-Nml-Val-Arg-Che; reading uncertain
For B11, the “EC50 group, cGMP in GTM-3 cells” value was not above 15 µM.

B12: JAL-1777 (peptide)
peptide: Octanoyl-[Sni]F[lys(Me2)]L[Hyp][NMeL]DR[Che]
modifications: reading uncertain; also: printed as Occ-Sni-Phe-lys(Me2)-Leu-Hyp-Nml-Asp-Arg-Che
Take B12: the “EC50 group, cGMP in GTM-3 cells” value was not above 1 µM.

B13: JAL-1776 (peptide)
peptide: Octanoyl-[Sni]F[orn(Me2)]L[Hyp][NMeL]DR[Che]
modifications: reading uncertain; also: printed as Occ-Sni-Phe-orn(Me2)-Leu-Hyp-Nml-Asp-Arg-Che
As for B13, the “EC50 group, cGMP in GTM-3 cells” value was not above 1 µM.

B14: JAL-1765-2 (peptide)
peptide: [AR‑314‑87][leu]L[Hyp][NMeL]DRI-NH2
modifications: reading uncertain; also: printed as (AR-314-87)-leu-Leu-Hyp-Nml-Asp-Arg-Ile-NH2
In the case of B14, the “EC50 group, cGMP in GTM-3 cells” value is not above 1 µM.

B15: JAL-1729 (peptide)
peptide: [Occ][Sni]FLL[Pro(trans-4-NH2)][NMeL]VR[Che]
modifications: not fully specified (residue 4); printed as Occ-Sni-Phe-leu-Leu-Tap-Nml-Val-Arg-Che; reading uncertain
Take B15: the “EC50 group, cGMP in GTM-3 cells” value was not above 1 µM.

B16: JAL-1774 (peptide)
peptide: [AR‑314‑102][leu]L[Hyp][NMeL]DRI-NH2
modifications: reading uncertain; also: printed as (AR-314-102)-leu-Leu-Hyp-Nml-Asp-Arg-Ile-NH2
For B16, the “EC50 group, cGMP in GTM-3 cells” value was not above 1 µM.

B17: JAL-1756 (peptide)
peptide: [Occ][Sni]FLL[Hyp][NMeL][d(β3hL)]R[Che]
modifications: not fully specified (residue 4); printed as Occ-Sni-Phe-leu-Leu-Hyp-Nml-Ble-Arg-Che; reading uncertain
For B17, the “EC50 group, cGMP in GTM-3 cells” value is not above 5 µM.

B18: JAL-1758 (peptide)
peptide: [Occ][Sni]FLL[Hyp][NMeL][2Thi]R[Che]
modifications: not fully specified (residue 4); printed as Occ-Sni-Phe-leu-Leu-Hyp-Nml-Thi-Arg-Che; reading uncertain
Turning to B18, the “EC50 group, cGMP in GTM-3 cells” value is not above 15 µM.

B19: JAL-1751 (peptide)
peptide: [Occ][Sni]FLL[Hyp][NMeL]NR[Che]
modifications: not fully specified (residue 4); printed as Occ-Sni-Phe-leu-Leu-Hyp-Nml-Asn-Arg-Che; reading uncertain
Take B19: the “EC50 group, cGMP in GTM-3 cells” value was not above 15 µM.

B20: JAL-1753 (peptide)
peptide: [Occ][Sni]FLL[Hyp][NMeL]TR[Che]
modifications: not fully specified (residue 4); printed as Occ-Sni-Phe-leu-Leu-Hyp-Nml-Thr-Arg-Che; reading uncertain
As to B20, the “EC50 group, cGMP in GTM-3 cells” value is not above 1 µM.

B21: JAL-1701 (peptide)
peptide: [Occ][Sni][hPhe]LL[Hyp][NMeL]DRI-NH2
modifications: not fully specified (residue 4); printed as Occ-Sni-Hfe-leu-Leu-Hyp-Nml-Asp-Arg-Ile-
As for B21, the “EC50 group, cGMP in GTM-3 cells” value is not above 15 µM.

B22: JAL-1781 (peptide)
peptide: Octanoyl-[Sni]F[lys(Me2)]L[Hyp][NMeL]DRI-NH2
modifications: reading uncertain; also: printed as Occ-Sni-Phe-lys(Me2)-Leu-Hyp-Nml-Asp-Arg-Ile-NH2
For B22, the “EC50 group, cGMP in GTM-3 cells” value was not above 5 µM.

B23: JAL-1755 (peptide)
peptide: [Occ][Sni]FLL[Hyp][NMeL][Nle]R[Che]
modifications: not fully specified (residue 4); printed as Occ-Sni-Phe-leu-Leu-Hyp-Nml-Nle-Arg-Che; reading uncertain
For the molecule B23, the “EC50 group, cGMP in GTM-3 cells” value was not above 15 µM.

B24: JAL-1752 (peptide)
peptide: [Occ][Sni]FLL[Hyp][NMeL]SR[Che]
modifications: not fully specified (residue 4); printed as Occ-Sni-Phe-leu-Leu-Hyp-Nml-Ser-Arg-Che; reading uncertain
For the molecule B24, the “EC50 group, cGMP in GTM-3 cells” value was not above 1 µM.

B25: JAL-1778 (peptide)
peptide: Octanoyl-[Sni]F[orn(Me2)]L[Hyp][NMeL]VR[Che]
modifications: reading uncertain; also: printed as Occ-Sni-Phe-orn(Me2)-Leu-Hyp-Nml-Val-Arg-Che
Take B25: the “EC50 group, cGMP in GTM-3 cells” value is not above 5 µM.

B26: JAL-1779 (peptide)
peptide: Octanoyl-[Sni]F[lys(Me2)]L[Hyp][NMeL]VR[Che]
modifications: reading uncertain; also: printed as Occ-Sni-Phe-lys(Me2)-Leu-Hyp-Nml-Val-Arg-Che
As to B26, the “EC50 group, cGMP in GTM-3 cells” value was not above 1 µM.
